Measurements as given in patent publication US20030028002A1, “Cyclin D binding factor, and uses thereof” (published 2003).
Each block holds one binder with its values, some of them ahead of it.

What was measured:
Ets1 DNA-binding domain = molecular target: T1, Ets1 DNA-binding domain (UniProt P14921 P14921:335-415); assay: EMSA
T1 sequence: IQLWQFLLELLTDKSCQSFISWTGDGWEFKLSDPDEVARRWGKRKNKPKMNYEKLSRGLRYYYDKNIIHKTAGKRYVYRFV
Method: (§1) Electrophoretic mobility shift assay (EMSA). Recombinant DMP1 protein was prepared in Sf9 cells [Hirai and Sherr, Mol. Cell. Biol. 16:6457-6467 (1996)]. Purified bacterial proteins representing the Ets1 DNA binding domain or full-length Ets1 [Inoue, et al., J. Biol. Chem. 273:29188-29194 (1998)] were used. EMSAs were performed [Inoue and Sherr, Mol. Cell. Biol. 18:1590-1600 (1998)] using either a 281-bp genomic fragment (−225 to +56) or double-stranded oligonucleotides containing the DMP1/Ets site obtained by annealing oligonucleotide 5′-[…]-3′ (sense strand SEQ ID NO:41); DMP1/Ets consensus sequence underlined) with a complementary antisense strand. For competition experiments, a 200-fold excess of unlabelled oligonucleotides was added to reaction mixtures before the probe. To verify the identity of the proteins in shifted complexes, reaction mixtures were incubated with control nonimmune rabbit serum (NRS), serum AF [Hirai and Sherr, Mol. Cell. Biol. 16:6457-6467 (1996)] and M-10 (both to DMP1 carboxylterminal epitopes), S-19 (DMP1 N-terminus), or C-20 (Ets1 C-terminus) before electrophoresis. M-10, S-19, and C-20 were from Santa Cruz Biotechnology.

Ets1 full length = molecular target: T2, Ets1 full length (UniProt P14921 P14921:1-441); assay: EMSA; supershifted by Ets1 antiserum
T2 sequence: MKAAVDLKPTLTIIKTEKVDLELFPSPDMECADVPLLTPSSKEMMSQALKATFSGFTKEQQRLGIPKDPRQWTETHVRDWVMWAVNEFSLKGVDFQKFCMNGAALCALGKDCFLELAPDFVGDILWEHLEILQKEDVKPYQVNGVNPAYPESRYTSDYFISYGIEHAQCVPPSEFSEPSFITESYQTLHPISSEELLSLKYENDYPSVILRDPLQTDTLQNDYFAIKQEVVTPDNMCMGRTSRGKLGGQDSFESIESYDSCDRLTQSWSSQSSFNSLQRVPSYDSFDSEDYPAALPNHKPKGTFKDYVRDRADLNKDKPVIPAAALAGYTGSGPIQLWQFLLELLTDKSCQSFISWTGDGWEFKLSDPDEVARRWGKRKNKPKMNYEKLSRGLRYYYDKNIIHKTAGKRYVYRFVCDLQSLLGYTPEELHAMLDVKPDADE
Method: as §1

cyclin D2-DMP1 complex = molecular target: T3, cyclin D2-DMP1 complex (mouse, UniProt P30280 1-289); assay: coinfected Sf9 cells, immunoprecipitation with antiserum to DMP1
T3 construct: Complex formed in coinfected Sf9 cells
T3 sequence (P30280 whole entry, one chain of several): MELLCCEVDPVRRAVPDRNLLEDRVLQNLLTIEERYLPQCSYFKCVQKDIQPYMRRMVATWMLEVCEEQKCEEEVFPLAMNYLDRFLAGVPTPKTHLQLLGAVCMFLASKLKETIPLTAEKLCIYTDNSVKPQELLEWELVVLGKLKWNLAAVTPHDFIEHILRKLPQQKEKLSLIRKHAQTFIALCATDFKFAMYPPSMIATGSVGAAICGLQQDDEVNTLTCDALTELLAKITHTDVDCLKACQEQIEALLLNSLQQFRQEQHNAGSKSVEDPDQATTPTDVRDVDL

cyclin D1 [1] = molecular target: T4, cyclin D1 (mouse, UniProt P25322 1-295); assay: GST pull-down of 35S-labelled in vitro translated cyclin
T4 construct: 35S-labelled in vitro translation product in the pull-down; baculovirus product in Sf9 cells
T4 sequence (P25322 whole entry): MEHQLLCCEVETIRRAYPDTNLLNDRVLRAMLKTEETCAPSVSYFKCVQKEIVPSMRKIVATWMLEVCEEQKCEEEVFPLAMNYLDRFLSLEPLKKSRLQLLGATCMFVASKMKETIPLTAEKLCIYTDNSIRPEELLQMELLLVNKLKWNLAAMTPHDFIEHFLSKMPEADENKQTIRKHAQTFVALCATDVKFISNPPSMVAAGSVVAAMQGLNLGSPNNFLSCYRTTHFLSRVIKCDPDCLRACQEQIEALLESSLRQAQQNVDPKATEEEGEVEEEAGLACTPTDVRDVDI
Method: (§2) Because DMP1 interacted with cyclin D2 in yeast, the ability of a glutathione S-transferase (GST)-DMP1 fusion protein to bind D-type cyclins in vitro is examined. GST is fused to residues 176-761 of DMP1 (in lieu of GAL4 in the original cDNA clone), and the bacterially synthesized recombinant protein is incubated with [³⁵S]methionine-labeled D-type cyclins prepared by transcription and translation in vitro. As a positive control, GST-RB which can specifically bind D-type cyclins in this assay is used (15). Bound cyclins recovered on washed glutathione-Sepharose beads are analyzed by electrophoresis on denaturing gels. […] GST-DMP1 is less efficient than GST-RB in binding cyclins D2 and D3 (˜4-fold less binding), and under these conditions, an interaction with D1 is not detected (lanes 3, 7, 11). No labeled proteins bind to GST alone (lanes 4, 8, 12), and neither cyclin A nor cyclin E bind to GST-RB or to GST-DMP1. A cyclin D2 mutant disrupted in an amino-terminal Leu-X-Cys-X-Glu pentapeptide that is required for high efficiency GST-RB binding is not detectably compromised in its interaction with GST-DMP1 (negative data not shown); in agreement, DMP1 bears no homology to RB or to RB-related family members (p107 and p130).

cyclin D2 = molecular target: T5, cyclin D2 (mouse, UniProt P30280 1-289); assay: GST pull-down of 35S-labelled in vitro translated cyclin on glutathione-Sepharose, gel autoradiography
T5 construct: 35S-labelled in vitro translation product in the pull-down; baculovirus product in Sf9 cells
T5 sequence (P30280 whole entry): as the sequence (P30280 whole entry, one chain of several) above
Method: as §2

cyclin D3 = molecular target: T6, cyclin D3 (mouse, UniProt P30282 1-292); assay: as above
T6 construct: 35S-labelled in vitro translation product in the pull-down; baculovirus product in Sf9 cells
T6 sequence (looked up): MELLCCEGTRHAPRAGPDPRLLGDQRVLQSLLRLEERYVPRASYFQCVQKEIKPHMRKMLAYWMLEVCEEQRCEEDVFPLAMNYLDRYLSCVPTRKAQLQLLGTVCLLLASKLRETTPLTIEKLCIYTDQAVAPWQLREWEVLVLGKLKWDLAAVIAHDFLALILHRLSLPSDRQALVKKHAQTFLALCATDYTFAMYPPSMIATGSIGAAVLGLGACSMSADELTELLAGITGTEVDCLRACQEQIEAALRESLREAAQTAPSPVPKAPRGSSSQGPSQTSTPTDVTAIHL
Method: as §2

cyclin D1 [2] = molecular target: T4, cyclin D1; assay: anti-Flag immunoprecipitation from Sf9 lysates, Western blot for cyclin D1
Text: The series of DMP1 deletion mutants and the K319E point mutant were then used to determine the cyclin D binding domain of DMP1. Expression vectors encoding murine wild-type DMP1, the corresponding deletion mutations, or K319E (i. e., wildtype DMP1 and M1-M11, defined in FIG. 10, Table 1) were cotransfected with an expression vector encoding cyclin D1 into SF9 cells. Wildtype DMP1 and M1-M11 were expressed containing Flag-tags. SF9 lysates were immunoprecipitated with an antibody raised against the Flag-tag. The immunoprecipitates were resolved individually by gel electrophoresis, and then Western blotted with an antibody raised against cyclin D1. […] Therefore, the cyclin D1 binding domain is missing in the M9 deletion mutant. […] Therefore, deletion of the N-terminal domain of DMP1 (i.e., amino acids 1-223) abrogates its ability to interact with D-type cyclins, and thus, the region of DMP1 from residues 1-223 contains a specific cyclin D interaction motif required for D-type cyclin-DMP1 association.

B1: ARF DMP1/Ets site oligo 23 bp (dsDNA)
DNA 1: AATTGGGACCCCGGATGCGGCAG
DNA 2: CTGCCGCATCCGGGGTCCCAATT
binding result (Ets1 DNA-binding domain): binds
binding result (Ets1 full length): binds

B2: catalytically inactive CDK4 mutant (enzyme, mouse, UniProt P30285 1-303, looked up)
chain: MAATRYEPVAEIGVGAYGTVYKARDPHSGHFVALMSVRVPNGGAAGGGLPVSTVREVALLRRLEAFEHPNVVRLMDVCATSRTDRDIKVTLVFEHIDQDLRTYLDKAPPPGLPVETIKDLMRQFLSGLDFLHANCIVHRDLKPENILVTSNGTVKLADFGLARIYSYQMALTPVVVTLWYRAPEVLLQSTYATPVDMWSVGCIFAEMFRRKPLFCGNSEADQLGKIFDLIGLPPEDDWPREVSLPRGAFAPRGPRPVQSVVPEMEESGAQLLLEMLTFNPHKRISAFRALQHSYLHKEESDAE
notes: also called mutant CDK4
binding result (cyclin D2-DMP1 complex): no binding

More lines, now with the values ahead:

binding result (cyclin D1 [1]): no binding
fold less binding than GST-RB (cyclin D2): ~4 fold less binding than GST-RB
fold less binding than GST-RB (cyclin D3): ~4 fold less binding than GST-RB
B3: GST-DMP1 fusion protein (GST fused to residues 176-761 of DMP1) (other)
chain: GIKDATEIIFEMSKDERKDFYRTIAWGLNRPLFAVYRRVLRMYDDRNHVGKYTPEEIEKLKELRIKHGNDWATIGAALGRSASSVKDRCRLMKDTCNTGKWTEEEEKRLAEVVHELTSTEPGDIVTQGVSWAAVAERVGTRSEKQCRSKWLNYLNWKQSGGTEWTKEDEINLILRIAELDVADENDINWDLLAEGWSSVRSPQWLRSKWWTIKRQIANHKDVSFPVLIKGLKQLHENQKNNPVLLENKSGSGVPNSNCNSSVQHVQIRVARLEDNTAISPSPMAALQIPVQITHVSSTDSPAASADSETITLNSGTLQTFEILPSFPLQPTGTPGTYLLQTSSSQGLPLTLTTNPTLTLAAAAPASPEQIIVHALSPEHLLNTSDNVTVQCHTPRVIIQTVATEDITSSLSQEELTVDSDLHSSDFPEPPDALEADTFPDEIPRPKMTIQPSFNNAHVSKFSDQNSTELMNSVMVRTEEEIADTDLKQEEPPSDLASAYVTEDLESPTIVHQVHQTIDDETILIVPSPHGFIQASDVIDTESVLPLTTLTDPIFQHHQEASNIIGSSLGSPVSEDSKDVEDLVNCH
notes: Made in bacteria, held on glutathione-Sepharose beads; not shown: glutathione S-transferase encoded by pGEX-3X (Pharmacia)

binding result (cyclin D1 [2]): no binding
B4: Flag-tagged DMP1 deletion mutant M9 (amino acids 234-761) (other)
chain: KLKELRIKHGNDWATIGAALGRSASSVKDRCRLMKDTCNTGKWTEEEEKRLAEVVHELTSTEPGDIVTQGVSWAAVAERVGTRSEKQCRSKWLNYLNWKQSGGTEWTKEDEINLILRIAELDVADENDINWDLLAEGWSSVRSPQWLRSKWWTIKRQIANHKDVSFPVLIKGLKQLHENQKNNPVLLENKSGSGVPNSNCNSSVQHVQIRVARLEDNTAISPSPMAALQIPVQITHVSSTDSPAASADSETITLNSGTLQTFEILPSFPLQPTGTPGTYLLQTSSSQGLPLTLTTNPTLTLAAAAPASPEQIIVHALSPEHLLNTSDNVTVQCHTPRVIIQTVATEDITSSLSQEELTVDSDLHSSDFPEPPDALEADTFPDEIPRPKMTIQPSFNNAHVSKFSDQNSTELMNSVMVRTEEEIADTDLKQEEPPSDLASAYVTEDLESPTIVHQVHQTIDDETILIVPSPHGFIQASDVIDTESVLPLTTLTDPIFQHHQEASNIIGSSLGSPVSEDSKDVEDLVNCH
notes: not shown: Flag-tag
